B1: RGS7 (protein)
chain: MAQGNNYGQTSNGVADESPNMLVYRKMEDVIARMQDEKNGIPIRTVKSFLSKIPSVFSGSDIVQWLIKNLTIEDPVEALHLGTLMAAHGYFFPISDHVLTLKDDGTFYRFQTPYFWPSNCWEPENTDYAVYLCKRTMQNKARLELADYEAESLARLQRAFARKWEFIFMQAEAQAKVDKKRDKIERKILDSQERAFWDVHRPVPGCVNTTEVDIKKSSRMRNPHKTRKSVYGLQNDIRSHSPTHTPTPETKPPTEDELQQQIKYWQIQLDRHRLKMSKVADSLLSYTEQYLEYDPFLLPPDPSNPWLSDDTTFWELEASKEPSQQRVKRWGFGMDEALKDPVGREQFLKFLESEFSSENLRFWLAVEDLKKRPIKEVPSRVQEIWQEFLAPGAPSAINLDSKSYDKTTQNVKEPGRYTFEDAQEHIYKLMKSDSYPRFIRSSAYQELLQAKKKSGNSMDRRTSFEKFAQNVGRNIPIFPCHKNCTPTLRASTNLL
B2: RGS16 (protein)
chain: MCRTLAAFPTTCLERAKEFKTRLGIFLHKSELGCDTGSTGKFEWGSKHSKENRNFSEDVLGWRESFDLLLSSKNGVAAFHAFLKTEFSEENLEFWLACEEFKKIRSATKLASRAHQIFEEFICSEAPKEVNIDHETHELTRMNLQTATATCFDAAQGKTRTLMEKDSYPRFLKSPAYRDLAAQASAASATLSSCSLDEPSHT
B3: RGS8 (protein)
chain: MAALLMPRRNKGMRTRLGCLSHKSDSCSDFTAILPDKPNRALKRLSTEEATRWADSFDVLLSHKYGVAAFRAFLKTEFSEENLEFWLACEEFKKTRSTAKLVSKAHRIFEEFVDVQAPREVNIDFQTREATRKNLQEPSLTCFDQAQGKVHSLMEKDSYPRFLRSKMYLDLLSQSQRRLS
B4: RGS4 (protein)
chain: MCKGLAGLPASCLRSAKDMKHRLGFLLQKSDSCEHNSSHNKKDKVVICQRVSQEEVKKWAESLENLISHECGLAAFKAFLKSEYSEENIDFWISCEEYKKIKSPSKLSPKAKKIYNEFISVQATKEVNLDSCTREETSRNMLEPTITCFDEAQKKIFNLMEKDSYRRFLKSRFYLDLVNPSSCGAEKQKGAKSSADCASLVPQCA

The binders below were run against Gαo (Homo sapiens, UniProt P09471) (assay: flow cytometry protein interaction assay).
Sequence of Gαo (P09471 2-354): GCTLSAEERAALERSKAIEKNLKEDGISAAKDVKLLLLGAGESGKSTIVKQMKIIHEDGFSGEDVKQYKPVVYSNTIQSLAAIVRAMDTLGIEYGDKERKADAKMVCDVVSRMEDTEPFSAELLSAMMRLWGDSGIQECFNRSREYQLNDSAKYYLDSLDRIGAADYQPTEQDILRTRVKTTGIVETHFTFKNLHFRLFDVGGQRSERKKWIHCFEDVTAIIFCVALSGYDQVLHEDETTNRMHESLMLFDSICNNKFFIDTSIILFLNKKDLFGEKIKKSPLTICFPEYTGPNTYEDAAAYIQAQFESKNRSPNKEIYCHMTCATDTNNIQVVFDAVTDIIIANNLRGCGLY

Question: B1 was tested. Which Kd did it give?
Answer: < 100 nM

Question: Which Kd does the source give for B2 here?
Answer: < 100 nM

Question: For B3, which Kd is on record?
Answer: < 100 nM

Question: How did the Kd turn out when B4 was run?
Answer: < 100 nM
